Columns and labels:
p53 (Danio rerio) = p53 (Danio rerio) (UniProt P79734); conditions: cited from earlier work
[1] = molecular target: the molecule itself; assay: crystal structure; DRp53(302-346), two crystal forms (C222(1), 1.97 A; P2(1), 2.2 A), grown at 20 C with zinc acetate and polyethylene glycol
[2] = molecular target: the molecule itself; assay: SEC-MALS; DRp53(302-345) at 185, 46 and 9 uM (monomer concentration at the peak); room temperature, 50 mM Tris pH 7.5, 150 mM NaCl, Superdex 75 10/300
[3] = molecular target: the molecule itself; assay: SEC-MALS; DRp53(302-331) at high concentrations (170 and 870 uM monomer at the peak); room temperature, 50 mM Tris pH 7.5, 150 mM NaCl, Superdex 75 10/300

## p53 (from UniProt P79734)
p53 (Danio rerio)
  Kd: 3.6 nM

B1: zebrafish p53 tetramerization domain, DRp53(302-346) (domain or fragment, zebrafish (Danio rerio), UniProt G1K2L5 302-346, looked up)
chain: EEIFTLQVRGRERYEILKKLNDSLELSDVVPASDAEKYRQKFMTK
notes: numbering on UniProt/TrEMBL entry G1K2L5 (length of 374 amino acids); Crystallised construct; same vector and cleavage here; also called full-length tetramerization domain; long variant; not shown: His6, N-terminal, cleaved; lipoyl domain of B. stearothermophilus dihydrolipoamide acetyltransferase, N-terminal, cleaved
[1]
  binding result: binds

B2: zebrafish p53 tetramerization domain, residues 302-345, DRp53(302-345) (domain or fragment, zebrafish (Danio rerio), UniProt G1K2L5 302-345, looked up)
chain: EEIFTLQVRGRERYEILKKLNDSLELSDVVPASDAEKYRQKFMT
notes: numbering on UniProt/TrEMBL entry G1K2L5 (length of 374 amino acids); Used for SEC-MALS; the two may be the same construct; not shown: His6, N-terminal, cleaved; lipoyl domain of B. stearothermophilus dihydrolipoamide acetyltransferase, N-terminal, cleaved; GGS, N-terminal, kept
[2]
  stoichiometry N: 4

B3: zebrafish p53 tetramerization domain deletion variant lacking helix H2, DRp53(302-331) (domain or fragment, zebrafish (Danio rerio), UniProt G1K2L5 302-331, looked up)
chain: EEIFTLQVRGRERYEILKKLNDSLELSDVV
notes: numbering on UniProt/TrEMBL entry G1K2L5 (length of 374 amino acids); same vector and cleavage here; also called truncated domain; short variant; not shown: His6, N-terminal, cleaved; lipoyl domain of B. stearothermophilus dihydrolipoamide acetyltransferase, N-terminal, cleaved
[3]
  stoichiometry N: 4

Reference: article PMC4155161 (Structure(London, England:1993), 2014)
